{
  "source": "the supplement of paper PMC10567573",
  "parents": {"B1": {"name": "DLC1 (parent)", "chain": "KRSWEEHVTHWMGQPFNSDDRNTA"}},
  "data": [
    {"variants_of": "B1", "assay": "protein stability index of a GFP-peptide fusion (GPS, HEK-293T) (PSI 1-6); higher = more stable", "details": "c terminus: a fixed tail appended", "values": [
      {"variant": "KRSWEEHVTHWMGQPFNSDDRNTQ", "protein stability index": 3.18},
      {"variant": "KRSWEEHVTHWMGQPFNSDDRNTN", "protein stability index": 2.23},
      {"variant": "KRSWEEHVTHWMGQPFNSDDRNTM", "protein stability index": 2.09},
      {"variant": "KRSWEEHVTHWMGQPFNSDDRNTH", "protein stability index": 2.9},
      {"variant": "KRSWEEHVTHWMGQPFMSDDRNTA", "protein stability index": 2.15},
      {"variant": "KRSWEEHVTHWMGQPFESDDRNTA", "protein stability index": 2.52},
      {"variant": "KRSWEEHVTHWMGQPFSSDDRNTA", "protein stability index": 2.63},
      {"variant": "KRSWEEHVTHWMGQPFKSDDRNTA", "protein stability index": 2.1},
      {"variant": "KRSWEEHVTHWMGQPFWSDDRNTA", "protein stability index": 2.77},
      {"variant": "KRSWEEHVTHWMGQPFQSDDRNTA", "protein stability index": 3.12},
      {"variant": "KRSWEEHVTHWMGQPFFSDDRNTA", "protein stability index": 2.77},
      {"variant": "KRSWEEHVTHWMGQPFGSDDRNTA", "protein stability index": 2.44},
      {"variant": "KRSWEEHVTHWMGQPFLSDDRNTA", "protein stability index": 2.44},
      {"variant": "KRSWEEHVTHWMGQPFPSDDRNTA", "protein stability index": 2.73},
      {"variant": "KRSWEEHVTHWMGQPFISDDRNTA", "protein stability index": 2.38},
      {"variant": "KRSWEEHVTHWMGQPFTSDDRNTA", "protein stability index": 3.4},
      {"variant": "KRSWEEHVTHWMGQPFRSDDRNTA", "protein stability index": 1.64},
      {"variant": "KRSWEEHVTHWMGQPFVSDDRNTA", "protein stability index": 2.26},
      {"variant": "KRSWEEHVTHWMGQPFHSDDRNTA", "protein stability index": 2.73},
      {"variant": "KRSWEEHVTHWMGQPFYSDDRNTA", "protein stability index": 2.36},
      {"variant": "KRSWEEHVTHWMGQPFASDDRNTA", "protein stability index": 2.64},
      {"variant": "KRSWEEHVTHWMGQPFDSDDRNTA", "protein stability index": 3.03},
      {"variant": "KRSWEEHVTHWMGQPFCSDDRNTA", "protein stability index": 2.23},
      {"variant": "KRSWEEHVTHWMGQHFNSDDRNTA", "protein stability index": 2.66},
      {"variant": "KRSWEEHVTHWMGQRFNSDDRNTA", "protein stability index": 2.41},
      {"variant": "KRSWEEHVTHWMGQNFNSDDRNTA", "protein stability index": 2.48},
      {"variant": "KRSWEEHVTHWMGQSFNSDDRNTA", "protein stability index": 2.3},
      {"variant": "KRSWEEHVTHWMGQTFNSDDRNTA", "protein stability index": 2.29},
      {"variant": "KRSWEEHVTHWMGQMFNSDDRNTA", "protein stability index": 2.17},
      {"variant": "KRSWEEHVTHWMGQIFNSDDRNTA", "protein stability index": 1.56},
      {"variant": "KRSWEEHVTHWMGQGFNSDDRNTA", "protein stability index": 2.43},
      {"variant": "KRSWEEHVTHWMGQKFNSDDRNTA", "protein stability index": 2.85},
      {"variant": "KRSWEEHVTHWMGQWFNSDDRNTA", "protein stability index": 2.92},
      {"variant": "KRSWEEHVTHWMGQLFNSDDRNTA", "protein stability index": 3.4},
      {"variant": "KRSWEEHVTHWMGQVFNSDDRNTA", "protein stability index": 2.27},
      {"variant": "KRSWEEHVTHWMGQYFNSDDRNTA", "protein stability index": 2.79},
      {"variant": "KRSWEEHVTHWMGQQFNSDDRNTA", "protein stability index": 2.1},
      {"variant": "KRSWEEHVTHWMGQPFNSDVRNTA", "protein stability index": 2.02},
      {"variant": "KRSWEEHVTHWMGQPFNSDQRNTA", "protein stability index": 3.05},
      {"variant": "KRSWEEHVTHWMGQPFNSDSRNTA", "protein stability index": 1.91},
      {"variant": "KRSWEEHVTHWMGQPFNSDHRNTA", "protein stability index": 2.48},
      {"variant": "KRSWEEHVTHWMGQPFNSDTRNTA", "protein stability index": 2.75},
      {"variant": "KRSWEEHVTHWMGQPFNSDRRNTA", "protein stability index": 2.66},
      {"variant": "KRSWEEHVTHWMGQPFNSDWRNTA", "protein stability index": 1.59},
      {"variant": "KRSWEEHVTHWMGQPFNSDFRNTA", "protein stability index": 2.29},
      {"variant": "KRSWEEHVTHWMGQPFNSDYRNTA", "protein stability index": 1.77},
      {"variant": "KRSWEEHVTHWMGQPFNSDCRNTA", "protein stability index": 2.19},
      {"variant": "KRSWEEHVTHWMGQPFNSDIRNTA", "protein stability index": 2.54},
      {"variant": "KRSWEEHVTHWMGQPFNSDLRNTA", "protein stability index": 2.48},
      {"variant": "KRSWEEHVTHWMGQPFNSDNRNTA", "protein stability index": 2.59},
      {"variant": "KRSWEEHVTHWMGQPFNSDARNTA", "protein stability index": 3.41},
      {"variant": "KRSWEEHVTHWMGQPFNSDERNTA", "protein stability index": 2.87},
      {"variant": "KRSWEEHVTHWMGQPFNSDPRNTA", "protein stability index": 2.76},
      {"variant": "KRSWEEHVTHWMGQPFNSDMRNTA", "protein stability index": 1.91},
      {"variant": "KRSWEEHVTHWMGQPFNSDGRNTA", "protein stability index": 2.43},
      {"variant": "KRSWEEHVTHWMGQPFNSDKRNTA", "protein stability index": 2.51},
      {"variant": "KRSWEEHVTHWMGQPFNSDDRWTA", "protein stability index": 1.7},
      {"variant": "KRSWEEHVTHWMGQPFNSDDRVTA", "protein stability index": 2.49},
      {"variant": "KRSWEEHVTHWMGQPFNSDDRLTA", "protein stability index": 2.06},
      {"variant": "KRSWEEHVTHWMGQPFNSDDRGTA", "protein stability index": 2.81},
      {"variant": "KRSWEEHVTHWMGQPFNSDDRDTA", "protein stability index": 2.59},
      {"variant": "KRSWEEHVTHWMGQPFNSDDRCTA", "protein stability index": 1.94},
      {"variant": "KRSWEEHVTHWMGQPFNSDDRRTA", "protein stability index": 2.53},
      {"variant": "KRSWEEHVTHWMGQPFNSDDRPTA", "protein stability index": 2.73},
      {"variant": "KRSWEEHVTHWMGQPFNSDDRQTA", "protein stability index": 2.67},
      {"variant": "KRSWEEHVTHWMGQPFNSDDRTTA", "protein stability index": 2.29},
      {"variant": "KRSWEEHVTHWMGQPFNSDDRSTA", "protein stability index": 2.74},
      {"variant": "KRSWEEHVTHWMGQPFNSDDRITA", "protein stability index": 2.12},
      {"variant": "KRSWEEHVTHWMGQPFNSDDRATA", "protein stability index": 1.81},
      {"variant": "KRSWEEHVTHWMGQPFNSDDRKTA", "protein stability index": 3.02},
      {"variant": "KRSWEEHVTHWMGQPFNSDDRETA", "protein stability index": 2.56},
      {"variant": "KRSWEEHVTHWMGQPFNSDDRYTA", "protein stability index": 2.09},
      {"variant": "KRSWEEHVTHWMGQPFNSDDRHTA", "protein stability index": 2.04},
      {"variant": "KRSWEEHVTHWMGQPFNSDDRMTA", "protein stability index": 2.28},
      {"variant": "KRSWEEHVTHWMGQPFNSDDRFTA", "protein stability index": 2.04},
      {"variant": "KRSWEEHVTHWMGQPFNSDDPNTA", "protein stability index": 2.6},
      {"variant": "KRSWEEHVTHWMGQPFNSDDFNTA", "protein stability index": 1.95},
      {"variant": "KRSWEEHVTHWMGQPFNSDDQNTA", "protein stability index": 3.07},
      {"variant": "KRSWEEHVTHWMGQPFNSDDYNTA", "protein stability index": 2.55},
      {"variant": "KRSWEEHVTHWMGQPFNSDDHNTA", "protein stability index": 2.47},
      {"variant": "KRSWEEHVTHWMGQPFNSDDGNTA", "protein stability index": 3.17},
      {"variant": "KRSWEEHVTHWMGQPFNSDDWNTA", "protein stability index": 2.92},
      {"variant": "KRSWEEHVTHWMGQPFNSDDTNTA", "protein stability index": 3.08},
      {"variant": "KRSWEEHVTHWMGQPFNSDDMNTA", "protein stability index": 2.27},
      {"variant": "KRSWEEHVTHWMGQPFNSDDENTA", "protein stability index": 2.99},
      {"variant": "KRSWEEHVTHWMGQPFNSDDANTA", "protein stability index": 2.64},
      {"variant": "KRSWEEHVTHWMGQPFNSDDDNTA", "protein stability index": 2.89},
      {"variant": "KRSWEEHVTHWMGQPFNSDDNNTA", "protein stability index": 3.91},
      {"variant": "KRSWEEHVTHWMGQPFNSDDLNTA", "protein stability index": 3.36},
      {"variant": "KRSWEEHVTHWMGQPFNSDDCNTA", "protein stability index": 2.85},
      {"variant": "KRSWEEHVTHWMGQPFNSDDVNTA", "protein stability index": 3.31},
      {"variant": "KRSWEEHVTHWMGQPFNSDDINTA", "protein stability index": 2.61},
      {"variant": "KRSWEEHVTHWMGQPFNSDDKNTA", "protein stability index": 3.32},
      {"variant": "KRSWEEHVTHWMGQPFNSDDSNTA", "protein stability index": 2.9}
    ]}
  ]
}
